# Experimental data from article PMC8397897.
# Target: DENV capsid protein (DENVC) (Dengue virus 2 strain 16681, UniProt O09234 1-100)
# Experiment: nephelometry (condensate formation); NaCl < 150 mM; diminished above; nonlabeled 25 mer
# Settings: protein: recombinant; chain copies: 2
binder,measurement,value
"GGACAGGAAUUAAUAGUAGCUGUCC (ssDNA, printed with U although named ssDNA; chemistry ambiguous) [ssDNASel25 (Sel25 DNA, 25 mer)]",binding result,binds
